Test results published in US9393271B2, “GHRH agonists for islet cell transplantation and function and the treatment of diabetes” (UNIVERSITY OF MIAMI, priority 2012, dated 2016).
Like-named read-outs stand apart in the source and are kept apart here. Each block holds one molecule with its values, some of them ahead of it. Non-standard residues stand in square brackets, D forms with d. Residues, ends and D or L forms follow the SMILES beside them. No end group written: not given here. *: point of attachment. Phe(F5) = N[C@@H](Cc1c(F)c(F)c(F)c(F)c1F)C(=O)O; Desaminotyrosyl = O=C(CCc1ccc(O)cc1)*; NMeY = CN[C@@H](Cc1ccc(O)cc1)C(=O)O; Agmatine = N=C(N)NCCCCN*; Nle = CCCC[C@H](N)C(=O)O; Orn = NCCC[C@H](N)C(=O)O; Abu = CC[C@H](N)C(=O)O; GABA = NCCCC(=O)O

Assays:
[1] = target: T1, GHRH receptor (human pituitary membrane homogenates) (Homo sapiens, UniProt Q02643); experiment: GHRH receptor binding, ligand competition with 125I-labeled JV-1-42 (Table 7); parameters: Normal human pituitaries were purchased from the National Hormone and Peptide Program; tissue National Hormone and Peptide Program (A. F. Parlow, Harbor-UCLA Medical Center, Torrance, Calif.); host or cells: normal human pituitary, membrane fraction / homogenate; conditions: JI-38 = 1
T1 sequence (Q02643 23-423): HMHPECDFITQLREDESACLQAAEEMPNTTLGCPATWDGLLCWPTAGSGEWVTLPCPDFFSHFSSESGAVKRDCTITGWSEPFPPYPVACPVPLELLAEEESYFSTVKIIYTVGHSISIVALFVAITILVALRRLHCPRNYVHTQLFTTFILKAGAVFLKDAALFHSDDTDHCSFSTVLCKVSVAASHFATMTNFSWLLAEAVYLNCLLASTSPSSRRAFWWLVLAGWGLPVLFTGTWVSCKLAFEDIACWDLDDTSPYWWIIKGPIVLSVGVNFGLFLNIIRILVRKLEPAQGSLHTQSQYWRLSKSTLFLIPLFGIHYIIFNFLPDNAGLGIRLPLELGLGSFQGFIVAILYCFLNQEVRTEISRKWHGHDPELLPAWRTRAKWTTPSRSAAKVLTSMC

INS-1 cells = experiment: INS-1 proliferation (BrdU Cell Proliferation Assay); format: cell-based, rat; conditions: different concentrations, 24 h, 48 h and 72 h
Method: For determination of proliferation activity, BrdU incorporation was performed in INS-1 cells following exposure to P-27403. Proliferation was measured using BrdU Cell Proliferation Assay (Millipore) following the manufacturer's description. The maximal enhancement in proliferation rate of 16% compared to control was found at 10^−8 M concentration of P-27403 (FIG. 1C).
INS-1 cells were grown for 72 h before experimentation. Cells were treated with GHRH agonists MR356, MR367, and MR403 at different concentrations or with 0.1% (vol/vol) DMSO as control for 24 h, 48 h and 72 h. Proliferation was measured using BrdU Cell Proliferation Assay (Millipore) following the manufacturer's description.

GHRH receptor (rat) [2] = target: T2, GHRH receptor (rat) (rat, UniProt Q02644)
T2 sequence: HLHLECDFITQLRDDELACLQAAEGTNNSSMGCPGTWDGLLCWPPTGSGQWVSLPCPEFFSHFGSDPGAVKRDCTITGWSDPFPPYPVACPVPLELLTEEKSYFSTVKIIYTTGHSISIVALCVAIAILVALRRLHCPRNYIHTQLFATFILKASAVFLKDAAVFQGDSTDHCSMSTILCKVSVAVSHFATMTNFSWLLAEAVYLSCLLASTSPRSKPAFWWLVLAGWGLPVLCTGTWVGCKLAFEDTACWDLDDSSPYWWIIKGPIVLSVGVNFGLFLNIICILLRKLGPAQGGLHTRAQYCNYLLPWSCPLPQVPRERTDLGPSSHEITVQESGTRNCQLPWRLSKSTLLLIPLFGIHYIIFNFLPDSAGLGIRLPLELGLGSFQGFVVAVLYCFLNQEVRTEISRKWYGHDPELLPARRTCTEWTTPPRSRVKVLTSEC

[3] = target: GHRH receptor in human pituitary membrane homogenates (human) (UniProt Q02643); experiment: ligand competition, 125I-JV-1-42 displaced, human pituitary membranes
[4] = target: GHRH receptor in human pituitary membrane homogenates (human) (UniProt Q02643); experiment: ligand competition, [His1,125I-Tyr10,Nle27]hGHRH(1-32)NH2 displaced, human pituitary membranes
[5] = target: GHRH receptor in human pituitary membrane homogenates (human) (UniProt Q02643); experiment: ligand competition, 125I-JV-1-42 displaced, human pituitary membranes; remark: listed apart in the source
[6] = target: T1, GHRH receptor (human pituitary membrane homogenates); experiment: GHRH receptor binding, ligand competition with 125I-labeled JV-1-42 (Table 5)
GH level [7] = experiment: In vivo endocrine activity (GH release), subcutaneous administration; conditions: rat, s.c.
Method: Subcutaneous Administration. Adult male rats were used and anesthetized with pentobarbital (6 mg/100 g, b.w.), by i.p. injection. […] Blood samples were taken from the jugular vein 5, 15 and/or 30 minutes after the injection. The blood samples were centrifuged, plasma was removed and the GH level was measured by ELISA. The results are summarized in terms of potency in Table 9.

GH level [8] = experiment: In vivo endocrine activity (GH release), intravenous administration; conditions: rat
Method: In vivo tests on endocrine activity of new GHRH agonists (Intravenous administration). For in vivo tests based on intravenous administration, adult male Sprague-Dawley rats were anesthetized with pentobarbital (6 mg/100/g, b.w.), and GHRH agonists were injected 20 minutes after the injection of pentobarbital. Blood samples were taken from the jugular vein (pretreated level), immediately after hGHRH(1-29)NH2 injection (as a control) or after hGHRH analogs injection. Blood samples were taken from the jugular vein 5, 15 and 30 minutes after the injection. The blood samples were centrifuged, plasma was removed and the GH level was measured by ELISA.

[9] = target: T3, GHRH receptor in human pituitary membrane homogenates (human, UniProt Q02643); experiment: ligand competition, 125I-JV-1-42 displaced, human pituitary membranes
T3 sequence: T1 sequence (Q02643 23-423)

GHRH receptor (rat) [10] = target: T2, GHRH receptor (rat); experiment: cell-based or functional assay
[11] = target: T3, GHRH receptor in human pituitary …; experiment: ligand competition, 125I-JV-1-42 displaced, human pituitary membranes; remark: listed apart in the source

Molecule: CCCC[C@H](NC(=O)[C@@H](NC(=O)[C@H](CC(=O)O)NC(=O)[C@H](CCC(N)=O)NC(=O)[C@H](CC(C)C)NC(=O)[C@H](CC(C)C)NC(=O)[C@H](CCCN)NC(=O)[C@H](CCCNC(=N)N)NC(=O)[C@H](C)NC(=O)[C@H](CO)NC(=O)[C@H](CC(C)C)NC(=O)[C@H](CCC(N)=O)NC(=O)[C@H](CC)NC(=O)[C@H](CC(C)C)NC(=O)[C@@H](NC(=O)[C@H](CCCN)NC(=O)[C@H](CCCNC(=N)N)NC(=O)[C@H](Cc1ccc(O)cc1)NC(=O)[C@H](CO)NC(=O)[C@H](CC(N)=O)NC(=O)[C@@H](NC(=O)[C@H](Cc1ccccc1)NC(=O)[C@@H](NC(=O)[C@H](C)NC(=O)[C@H](CC(=O)O)NC(=O)[C@@H](C)NC(=O)[C@H](Cc1ccc(O)cc1)NC)[C@@H](C)CC)[C@@H](C)O)C(C)C)[C@@H](C)CC)C(=O)N[C@@H](CC(=O)O)C(=O)NCCCCNC(=N)N [Peptide P-20367, [N—Me-Tyr^1, D-Ala^2, Orn^12, Abu^15, Orn^21, Nle^27, Asp^28, Agm^29]hGHRH(1-29)] (H-[NMeY][dA]DAIFTNSYR[Orn]VL[Abu]QLSAR[Orn]LLQDI[Nle]D-Agmatine)
Relative affinitiy (Binding potency) vs JI-38 [1]: 2.56
Cell proliferation compared to control (INS-1 cells): significantly induced cell proliferation

GH release from superfused rat pituitary cells, 1 nM for 3 min, GH by ELISA (peak fraction, average) (GHRH receptor (rat) [2]): 195 ng/mL
IC50 [3]: 1.71 nM
relative affinity (binding potency) vs GHRH (GHRH(1-29) = 1) [3]: 2.4
IC50 [4]: 1.95 nM
relative affinity (binding potency) vs GHRH (GHRH(1-29) = 1) [4]: 3.03
relative affinity (binding potency) vs JI-38 [4]: 1 JI-38 = 1
IC50 [5]: 4.35 nM
relative affinity (binding potency) vs JI-38 [5]: 1 JI-38 = 1
Molecule: JI-38 (peptide)

Relative affinitiy (Binding potency) vs GHRH ([6]; GHRH(1-29) = 1): 58.0
Relative affinitiy (Binding potency) vs JI-38 ([6]; JI-38 = 1): 24.4
Relative affinitiy (Binding potency) vs JI-38 [1]: 13.18
Molecule: CCCC[C@H](NC(=O)[C@@H](NC(=O)[C@H](CC(=O)O)NC(=O)[C@H](CCC(N)=O)NC(=O)[C@H](CC(C)C)NC(=O)[C@H](CC(C)C)NC(=O)[C@H](CCCN)NC(=O)[C@H](CCCNC(=N)N)NC(=O)[C@H](C)NC(=O)[C@H](CO)NC(=O)[C@H](CC(C)C)NC(=O)[C@H](CCC(N)=O)NC(=O)[C@H](CC)NC(=O)[C@H](CC(C)C)NC(=O)[C@@H](NC(=O)[C@H](CCCN)NC(=O)[C@H](CCCNC(=N)N)NC(=O)[C@H](Cc1ccc(O)cc1)NC(=O)[C@H](CO)NC(=O)[C@H](CC(N)=O)NC(=O)[C@@H](NC(=O)[C@H](Cc1c(F)c(F)c(F)c(F)c1F)NC(=O)[C@@H](NC(=O)[C@H](C)NC(=O)[C@H](CC(=O)O)NC(=O)[C@@H](C)NC(=O)CCc1ccc(O)cc1)[C@@H](C)CC)[C@@H](C)O)C(C)C)[C@@H](C)CC)C(=O)N[C@@H](CO)C(=O)N[C@@H](CCCNC(=N)N)C(=O)NCCCC(N)=O [Peptide P-25502, [Dat^1, D-Ala^2, Fpa5^6, Orn^12, Abu^15, Orn^21, Nle^27, Gab^30]hGHRH(1-30)NH2] (Desaminotyrosyl-[dA]DAI[Phe(F5)]TNSYR[Orn]VL[Abu]QLSAR[Orn]LLQDI[Nle]SR[GABA]-NH2)
Stimulation of growth hormone levels after s.c. administration (comparison in words) (GH level [7]): stimulated greater growth hormone levels than hGHRH or JI-38
Stimulation of growth hormone levels after i.v. administration (comparison in words) (GH level [8]): most potent

IC50 [9]: 0.01 nM
relative affinity (binding potency) vs GHRH [9]: 406 GHRH(1-29) = 1
relative affinity (binding potency) vs JI-38 [9]: 171 JI-38 = 1
GH-releasing potency in superfused rat pituitary cells relative to JI-38 (GHRH receptor (rat) [10]): ~3 times (vs JI-38)
IC50 [11]: 0.27 nM
relative affinity (binding potency) vs JI-38 [11]: 16.1 JI-38 = 1
Molecule: [NMeY]ADAIFTQSYR[Orn]VL[Abu]QLSAR[Orn]LLQDI[Nle]D[Agmatine] [[N-Me-Tyr1, Gln8, Orn12, Abu15, Orn21, Nle27, Asp28, Agm29]hGHRH(1-29)]
